Data from patent US20260265390A1 (SHANDONG SIMCERE BIOPHARMACEUTICAL, published 2026).

T1: human BCMA (B cell maturation antigen), expressed on cells (human, UniProt Q02223 1-184)
T1 construct: whole, on cells; Overexpressed on Flp-in CHO cells; also called Flp-inCHO-human BCMA cells; CD269
T1 sequence (looked up): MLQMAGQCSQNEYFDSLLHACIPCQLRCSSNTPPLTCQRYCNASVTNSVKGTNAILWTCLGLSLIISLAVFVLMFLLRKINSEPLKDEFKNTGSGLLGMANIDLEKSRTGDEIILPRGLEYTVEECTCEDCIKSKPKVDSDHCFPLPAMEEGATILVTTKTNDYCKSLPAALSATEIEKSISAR


Key:
[1] = target: T2, human CD3, endogenous on Jurkat cells and on activated human PBMC (human, UniProt P07766 23-207; P04234 22-171); assay: FACS, Jurkat cells
T2 construct: whole, on cells; CD3 complex as it stands on T cells

[2] = target: T2, human CD3, endogenous on Jurkat cells …; assay: FACS, activated human PBMC
[3] = target: T3, monkey CD3, on activated monkey PBMC (monkey); assay: FACS, activated monkey PBMC
T3 construct: whole, on cells

[4] = target: T4, human GPRC5D, expressed on cells (human, UniProt Q9NZD1 1-345); assay: FACS, CHOK1-human GPRC5D cells
T4 construct: whole, on cells; Overexpressed on CHOK1 cells; also called CHOK1-human GPRC5D cells
Method: (§1) Flp-inCHO-human BCMA cells and CHOK1-human GPRC5D cells were scale-up cultured in T-75 cell culture flask to the logarithmic growth phase, respectively, and the cells were pipetted to obtain a single cell suspension. After the cells were counted and centrifuged, the cell precipitate was resuspended to 2×10⁶ cells per milliliter with a FACS buffer (PBS+2% fetal bovine serum). The suspension was added to a 96-well FACS reaction plate at 50 μl/well. 8 concentrations of the anti-BCMA-GPRC5D-CD3 antibodies or control antibodies were added at 50 μl/well, wherein gradient dilution was performed at a dilution ratio of 5 from a concentration of 100 nM. The cells were incubated at 4° C. for 1 h. The obtained mixture was centrifuged and washed 3 times with a PBS buffer. […] The obtained mixture was centrifuged and washed 3 times with a PBS buffer. 100 μl of the mixture was taken for detection and result analysis by FACS (FACS Canto™, purchased from BD Company). Data analysis was performed by software (FlowJo) to obtain the mean fluorescence intensity (MFI) of the cells. Then, a software (GraphPad Prism8) was used for analysis, data fitting and EC50 calculation.

[5] = target: T1, human BCMA (B cell maturation antigen), …; assay: FACS, Flp-inCHO-human BCMA cells
Method: as §1

T3 sequence (Q95LI5 22-198): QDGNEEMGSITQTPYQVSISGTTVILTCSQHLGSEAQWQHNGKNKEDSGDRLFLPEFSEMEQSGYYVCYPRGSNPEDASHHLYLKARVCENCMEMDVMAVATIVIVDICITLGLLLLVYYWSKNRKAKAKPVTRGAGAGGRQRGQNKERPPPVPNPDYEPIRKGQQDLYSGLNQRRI
T2 sequence (P07766 23-207, chain 1 of 2): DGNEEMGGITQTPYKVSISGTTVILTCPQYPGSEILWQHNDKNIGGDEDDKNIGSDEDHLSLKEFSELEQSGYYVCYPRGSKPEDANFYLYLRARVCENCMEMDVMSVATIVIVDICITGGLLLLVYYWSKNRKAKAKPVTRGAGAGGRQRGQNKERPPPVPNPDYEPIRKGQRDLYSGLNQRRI
T2 sequence (P04234 22-171, chain 2 of 2): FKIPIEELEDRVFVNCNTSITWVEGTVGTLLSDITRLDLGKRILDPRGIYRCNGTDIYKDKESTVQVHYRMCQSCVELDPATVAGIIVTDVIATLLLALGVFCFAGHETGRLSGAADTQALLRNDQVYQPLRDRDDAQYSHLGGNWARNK
T4 sequence (Q9NZD1 whole entry): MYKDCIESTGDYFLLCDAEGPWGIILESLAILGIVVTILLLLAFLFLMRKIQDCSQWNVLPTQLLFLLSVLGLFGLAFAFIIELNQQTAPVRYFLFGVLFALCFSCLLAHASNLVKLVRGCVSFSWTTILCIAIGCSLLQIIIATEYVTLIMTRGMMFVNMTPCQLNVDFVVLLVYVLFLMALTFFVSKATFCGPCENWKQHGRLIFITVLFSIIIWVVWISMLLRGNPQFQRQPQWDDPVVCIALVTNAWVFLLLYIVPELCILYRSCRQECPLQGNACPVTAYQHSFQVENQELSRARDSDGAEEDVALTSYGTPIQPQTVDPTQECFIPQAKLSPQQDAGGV

Binder	Maximum mean fluorescence intensity [1]	Maximum mean fluorescence intensity [2]	EC50 [3] [nM]	Maximum mean fluorescence intensity [3]	EC50 [4] [nM]	EC50 [5] [nM]	EC50 [1] [nM]	EC50 [2] [nM]
Tri-62 anti-BCMA-GPRC5D-CD3 trispecific antibody (other, Trispecific antibody; Asymmetric (purification method B)) VH 1: EGQMVQSGAEVKKPGSSVKVSCKASGYMFTDHTFHWVRQAPGQGLEWMGYIYPRDQNTKYNEKFKGRVTITADKSTSTAYMELSSLRSEDTAVYYCARAGYYGSSHAMDYWGQGTTVTVSS VL 1: DIQMTQSPSSLSASVGDRVTITCKASQDVSTAVAWYQQKPGKSPRLLIYSASSRYTGVPSRFSGSGSGTDFTFTISSLQPEDIATYYCQQLYSTPWTFGGGTKVEIK VH 2: EVQLVQSGAEVKKPGSSVKVSCKASGYTFTSYGISWVRQAPGQGLEWMGEIYPRSGNTYYNEKFKGRVTLTADKSTSTAYMELSSLRSEDTAVYYCARGRAYGRNYPMDYWGQGTTVTVSS VL 2: EIVLTQSPATLSLSPGERATLSCRASQSIGTSIHWYQQKPGQSPRLLIKYASESISGIPARFSGSGSGTDFTLTISSLEPEDFAVYYCQQSNSWPYTFGGGTKVEIK VH 3: EVQLVESGGGVVQPGRSLRLSCAASGFTFTDYYMSWVRQAPGKGLEWVAMSRNKAKGHTIEYSSSVKGRFTISRDNSKNTLYLQMNSLRAEDTAVYYCARDTYESYDGYFDVWGQGTTVTVSS VL 3: DIVMTQSPDSLAVSLGERATINCKSSQSLFNSRSRKNYLAWYQQKPGQTPKLLIYWASIRESGVPDRFSGSGSGTDFTLTISSLQAEDVAVYYCKQSYYLYTFGQGTKLEIK chain 1: ESKYGPPCPPCPAPEAAGGPSVFLFPPKPKDTLMISRTPEVTCVVVDVSQEDPEVQFNWYVDGVEVHNAKTKPREEQFNSTYRVVSVLTVLHQDWLNGKEYKCKVSNKGLPSSIEKTISKAKGQPREPQVYTLPPSQEEMTKNQVSLWCLVKGFYPSDIAVEWESNGQPENNYKTTPPVLDSDGSFFLYSRLTVDKSRWQEGNVFSCSVMHEALHNHYTQKSLSLSLG chain 2: ESKYGPPCPPCPAPEAAGGPSVFLFPPKPKDTLMISRTPEVTCVVVDVSQEDPEVQFNWYVDGVEVHNAKTKPREEQFNSTYRVVSVLTVLHQDWLNGKEYKCKVSNKGLPSSIEKTISKAKGQPREPQVYTLPPSQEEMTKNQVSLSCAVKGFYPSDIAVEWESNGQPENNYKTTPPVLDSDGSFFLVSRLTVDKSRWQEGNVFSCSVMHEALHNHYTQKSLSLSLG	462	452	85.5	740	0.4	14.5		
Tri-49 anti-BCMA-GPRC5D-CD3 trispecific antibody (other, Trispecific antibody; Asymmetric (purification method B)) VHH: EVQLVESGGGLVQPGGSLRLSCAASESISSIHIMAWYRQAPGKQRELVAGIRNDGSTVYVDSVKGRFTISRDNAKNSLYLQMNSLRAEDTAVYYCNADQGFGSYSEWERRSRWGQGTTVTVSS VH 1: EVQLVQSGAEVKKPGSSVKVSCKASGYTFTSYGISWVRQAPGQGLEWMGEIYPRSGNTYYNEKFKGRVTLTADKSTSTAYMELSSLRSEDTAVYYCARGRAYGRNYPMDYWGQGTTVTVSS VL 1: EIVLTQSPATLSLSPGERATLSCRASQSIGTSIHWYQQKPGQSPRLLIKYASESISGIPARFSGSGSGTDFTLTISSLEPEDFAVYYCQQSNSWPYTFGGGTKVEIK VH 2: EVQLVESGGGVVQPGRSLRLSCAASGFTFTDYYMSWVRQAPGKGLEWVAMSRNKAKGHTIEYSSSVKGRFTISRDNSKNTLYLQMNSLRAEDTAVYYCARDTYESYDGYFDVWGQGTTVTVSS VL 2: DIVMTQSPDSLAVSLGERATINCKSSQSLFNSRSRKNYLAWYQQKPGQTPKLLIYWASIRESGVPDRFSGSGSGTDFTLTISSLQAEDVAVYYCKQSYYLYTFGQGTKLEIK chain 1: ESKYGPPCPPCPAPEAAGGPSVFLFPPKPKDTLMISRTPEVTCVVVDVSQEDPEVQFNWYVDGVEVHNAKTKPREEQFNSTYRVVSVLTVLHQDWLNGKEYKCKVSNKGLPSSIEKTISKAKGQPREPQVYTLPPSQEEMTKNQVSLWCLVKGFYPSDIAVEWESNGQPENNYKTTPPVLDSDGSFFLYSRLTVDKSRWQEGNVFSCSVMHEALHNHYTQKSLSLSLG chain 2: ESKYGPPCPPCPAPEAAGGPSVFLFPPKPKDTLMISRTPEVTCVVVDVSQEDPEVQFNWYVDGVEVHNAKTKPREEQFNSTYRVVSVLTVLHQDWLNGKEYKCKVSNKGLPSSIEKTISKAKGQPREPQVYTLPPSQEEMTKNQVSLSCAVKGFYPSDIAVEWESNGQPENNYKTTPPVLDSDGSFFLVSRLTVDKSRWQEGNVFSCSVMHEALHNHYTQKSLSLSLG			59.4				157	31.8
